Values joined by “and” are separate entries in the source; they are usually repeats but may differ in a detail not shown here. Equal entries are not always repeated.
Experiments:
human BCMA on cells [1] = biological target: T1, human BCMA on cells (human, UniProt Q02223 1-184); test: cell-based or functional assay
T1 sequence (looked up): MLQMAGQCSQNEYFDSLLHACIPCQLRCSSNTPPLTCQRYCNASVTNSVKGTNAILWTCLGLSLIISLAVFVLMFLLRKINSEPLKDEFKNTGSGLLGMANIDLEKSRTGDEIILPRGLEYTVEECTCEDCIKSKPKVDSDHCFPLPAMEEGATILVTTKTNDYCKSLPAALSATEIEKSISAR

human BCMA on cells [2] = biological target: T1, human BCMA on cells; test: flow cytometry on RPMI-8226 multiple myeloma cells, PE anti-human Fc F(ab')2 detection; estimated EC50
Procedure: (§1) Briefly, cultured cells are harvested, counted and cell viability was evaluated using ViCell. Viable cells are then adjusted to 2×10⁶ cells per ml in BSA-containing FACS Stain Buffer (BD Biosciences). 100 μl of this cell suspension were further aliquoted per well into a round-bottom 96-well plate and incubated with 30 μl of the anti-BCMA antibodies or corresponding IgG control for 30 min at 4° c. All Anti-BCMA/anti-CD3 TCB antibodies (and TCB controls) were titrated and analyzed in final concentration range between 1-300 nM. Cells were then centrifuged (5 min, 350×g), washed with 120 μl/well FACS Stain Buffer (BD Biosciences), resuspended and incubated for an additional 30 min at 4° C. with fluorochrome-conjugated PE-conjugated AffiniPure F(ab′)2 Fragment goat anti-human IgG Fc Fragment Specific (Jackson Immuno Research Lab; 109-116-170). Cells were then washed twice with Stain Buffer (BD Biosciences), fixed using 100 ul BD Fixation buffer per well (#BD Biosciences, 554655) at 4° C. for 20 min, resuspended in 120 μl FACS buffer and analyzed using BD FACS CantoII.

human BCMA on cells [3] = biological target: T1, human BCMA on cells; test: cell-based or functional assay; remark: listed apart in the source
human BCMA on cells [4] = biological target: T1, human BCMA on cells; test: flow cytometry on H929 multiple myeloma cells, PE anti-human Fc F(ab')2 detection; estimated EC50
Procedure: as §1

human BCMA on cells [5] = biological target: T1, human BCMA on cells; test: cell-based or functional assay; remark: listed apart in the source
human BCMA on cells [6] = biological target: T1, human BCMA on cells; test: cell-based or functional assay; remark: listed apart in the source
human BCMA on cells [7] = biological target: T1, human BCMA on cells; test: flow cytometry on L363 multiple myeloma cells, PE anti-human Fc F(ab')2 detection; estimated EC50
Procedure: as §1

human BCMA on cells [8] = biological target: T1, human BCMA on cells; test: cell-based or functional assay; remark: listed apart in the source

B1: 21-TCBcv (bispecific antibody, human IgG1, kappa, L234A L235A)
heavy 1: not shown
heavy 2: EVQLLESGGGLVQPGGSLRLSCAASGFTFSDNAMGWVRQAPGKGLEWVSAISGPGSSTYYADSVKGRFTISRDNSKNTLYLQMNSLRAEDTAVYYCAKVLGWFDYWGQGTLVTVSSASTKGPSVFPLAPSSKSTSGGTAALGCLVEDYFPEPVTVSWNSGALTSGVHTFPAVLQSSGLYSLSSVVTVPSSSLGTQTYICNVNHKPSNTKVDEKVEPKSCDKTHTCPPCPAPEAAGGPSVFLFPPKPKDTLMISRTPEVTCVVVDVSHEDPEVKFNWYVDGVEVHNAKTKPREEQYNSTYRVVSVLTVLHQDWLNGKEYKCKVSNKALGAPIEKTISKAKGQPREPQVCTLPPSRDELTKNQVSLSCAVKGFYPSDIAVEWESNGQPENNYKTTPPVLDSDGSFFLVSKLTVDKSRWQQGNVFSCSVMHEALHNHYTQKSLSLSPGK
light 1: EIVLTQSPGTLSLSPGERATLSCRASQSVSEYYLAWYQQKPGQAPRLLIEHASTRATGIPDRFSGSGSGTDFTLTISRLEPEDFAVYYCQQYGYPPDFTFGQGTKVEIKRTVAAPSVFIFPPSDRKLKSGTASVVCLLNNFYPREAKVQWKVDNALQSGNSQESVTEQDSKDSTYSLSSTLTLSKADYEKHKVYACEVTHQGLSSPVTKSFNRGEC
light 2: EVQLLESGGGLVQPGGSLRLSCAASGFTFSTYAMNWVRQAPGKGLEWVSRIRSKYNNYATYYADSVKGRFTISRDDSKNTLYLQMNSLRAEDTAVYYCVRHGNFGNSYVSWFAYWGQGTLVTVSSASVAAPSVFIFPPSDEQLKSGTASVVCLLNNFYPREAKVQWKVDNALQSGNSQESVTEQDSKDSTYSLSSTLTLSKADYEKHKVYACEVTHQGLSSPVTKSFNRGEC
notes: also called anti-BCMA/anti-CD3 T cell bispecific antibody of Mab21
Which results are given for B1?
EC50 of redirected T-cell killing of RPMI-8226 cells (LDH release), Donor 2 (human BCMA on cells [1]): 0.0413 nM; EC50 of redirected T-cell killing of RPMI-8226 cells (LDH release), Donor 3 (human BCMA on cells [1]): 0.0088 nM; EC50 of redirected T-cell killing of RPMI-8226 cells (LDH release), Donor 4 (human BCMA on cells [1]): 0.004 nM; EC50 of redirected T-cell killing of RPMI-8226 cells (LDH release), Donor 5 (human BCMA on cells [1]): 0.0084 nM; EC50 (human BCMA on cells [2]): 6.8 nM and 0.982 µg/mL; EC50 of redirected T-cell killing of L363 cells (LDH release), Donor 1 (human BCMA on cells [3]): 0.0836 nM; EC50 of redirected T-cell killing of L363 cells (LDH release), Donor 2 (human BCMA on cells [3]): 0.0384 nM; EC50 of redirected T-cell killing of L363 cells (LDH release), Donor 3 (human BCMA on cells [3]): 0.0189 nM; EC50 of redirected T-cell killing of L363 cells (LDH release), Donor 4 (human BCMA on cells [3]): 0.0191 nM; EC50 of redirected T-cell killing of L363 cells (LDH release), Donor 5 (human BCMA on cells [3]): 0.0464 nM; EC50 (human BCMA on cells [4]): 11 nM and 1.59 µg/mL; EC50 of redirected T-cell killing of H929 cells (LDH release), Donor 1 (human BCMA on cells [5]): 0.0971 nM; EC50 of redirected T-cell killing of H929 cells (LDH release), Donor 3 (human BCMA on cells [5]): 0.0421 nM; EC50 of redirected T-cell killing of H929 cells (LDH release), Donor 4 (human BCMA on cells [5]): 0.0539 nM; EC50 of redirected T-cell killing of H929 cells (LDH release), Donor 5 (human BCMA on cells [5]): 0.0387 nM

B2: 22-TCBcv (bispecific antibody, human IgG1, kappa, L234A L235A)
heavy 1: not shown
heavy 2: EVQLLESGGGLVQPGGSLRLSCAASGFTFSDNAMGWVRQAPGKGLEWVSAISGPGSSTYYADSVKGRFTISRDNSKNTLYLQMNSLRAEDTAVYYCAKVLGWFDYWGQGTLVTVSSASTKGPSVFPLAPSSKSTSGGTAALGCLVEDYFPEPVTVSWNSGALTSGVHTFPAVLQSSGLYSLSSVVTVPSSSLGTQTYICNVNHKPSNTKVDEKVEPKSCDKTHTCPPCPAPEAAGGPSVFLFPPKPKDTLMISRTPEVTCVVVDVSHEDPEVKFNWYVDGVEVHNAKTKPREEQYNSTYRVVSVLTVLHQDWLNGKEYKCKVSNKALGAPIEKTISKAKGQPREPQVCTLPPSRDELTKNQVSLSCAVKGFYPSDIAVEWESNGQPENNYKTTPPVLDSDGSFFLVSKLTVDKSRWQQGNVFSCSVMHEALHNHYTQKSLSLSPGK
light 1: EIVLTQSPGTLSLSPGERATLSCRASQSVSSYYLAWYQQKPGQAPRLLISGAGSRATGIPDRFSGSGSGTDFTLTISRLEPEDFAVYYCQQYGYPPDFTFGQGTKVEIKRTVAAPSVFIFPPSDRKLKSGTASVVCLLNNFYPREAKVQWKVDNALQSGNSQESVTEQDSKDSTYSLSSTLTLSKADYEKHKVYACEVTHQGLSSPVTKSFNRGEC
light 2: EVQLLESGGGLVQPGGSLRLSCAASGFTFSTYAMNWVRQAPGKGLEWVSRIRSKYNNYATYYADSVKGRFTISRDDSKNTLYLQMNSLRAEDTAVYYCVRHGNFGNSYVSWFAYWGQGTLVTVSSASVAAPSVFIFPPSDEQLKSGTASVVCLLNNFYPREAKVQWKVDNALQSGNSQESVTEQDSKDSTYSLSSTLTLSKADYEKHKVYACEVTHQGLSSPVTKSFNRGEC
notes: also called 22-TCVcv; anti-BCMA/anti-CD3 T cell bispecific antibody of Mab22
Which “EC50 of redirected T-cell killing of RPMI-8226 cells (LDH release), Donor 2” value (human BCMA on cells [1]) does the source give for B2 here?
Its value is 0.0476 nM.

And the “EC50 of redirected T-cell killing of RPMI-8226 cells (LDH release), Donor 3” value (human BCMA on cells [1])?
Its value is 0.0076 nM.

And the “EC50 of redirected T-cell killing of RPMI-8226 cells (LDH release), Donor 4” value (human BCMA on cells [1])?
Its value is 0.0032 nM.

And the “EC50 of redirected T-cell killing of RPMI-8226 cells (LDH release), Donor 5” value (human BCMA on cells [1])?
Its value is 0.0055 nM.

What about the “EC50 of redirected T-cell killing of L363 cells (LDH release), Donor 1” value (human BCMA on cells [3]) of the same binder?
The value was 0.0975 nM.

And the “EC50 of redirected T-cell killing of L363 cells (LDH release), Donor 2” value (human BCMA on cells [3])?
The value was 0.0277 nM.

And the “EC50 of redirected T-cell killing of L363 cells (LDH release), Donor 3” value (human BCMA on cells [3])?
Its value is 0.0165 nM.

And the “EC50 of redirected T-cell killing of L363 cells (LDH release), Donor 4” value (human BCMA on cells [3])?
The value was 0.0146 nM.

What about the “EC50 of redirected T-cell killing of L363 cells (LDH release), Donor 5” value (human BCMA on cells [3]) of the same binder?
Its value is 0.056 nM.

What about the “Annexin-V positive JJN-3 cells (%) at 0.1 pM TCB, Experiment 2” value (human BCMA on cells [6]) of the same binder?
The value was 14.8%.

What about the “Annexin-V positive JJN-3 cells (%) at 1 pM TCB, Experiment 1” value (human BCMA on cells [6]) of the same binder?
Its value is 9.3%.

And the “Annexin-V positive JJN-3 cells (%) at 1 pM TCB, Experiment 2” value (human BCMA on cells [6])?
Its value is 15%.

And the “Annexin-V positive JJN-3 cells (%) at 10 pM TCB, Experiment 1” value (human BCMA on cells [6])?
Its value is 13.3%.

What about the “Annexin-V positive JJN-3 cells (%) at 10 pM TCB, Experiment 2” value (human BCMA on cells [6]) of the same binder?
Its value is 15.9%.

And the “Annexin-V positive JJN-3 cells (%) at 100 pM TCB, Experiment 1” value (human BCMA on cells [6])?
The value was 12.5%.

And the “Annexin-V positive JJN-3 cells (%) at 100 pM TCB, Experiment 2” value (human BCMA on cells [6])?
Its value is 18.4%.

And the “Annexin-V positive JJN-3 cells (%) at 1000 pM TCB, Experiment 1” value (human BCMA on cells [6])?
The value was 26.1%.

And the “Annexin-V positive JJN-3 cells (%) at 1000 pM TCB, Experiment 2” value (human BCMA on cells [6])?
The value was 27%.

And the “Annexin-V positive JJN-3 cells (%) at 10000 pM TCB, Experiment 1” value (human BCMA on cells [6])?
Its value is 22.9%.

And the “Annexin-V positive JJN-3 cells (%) at 10000 pM TCB, Experiment 2” value (human BCMA on cells [6])?
Its value is 29.7%.

What about the EC50 (human BCMA on cells [7]) of the same binder?
Its EC50 is 30 nM and 4.33 µg/mL.

What about the EC50 (human BCMA on cells [4]) of the same binder?
Its EC50 is 7.9 nM and 1.14 µg/mL.

And the “Lysis of JJN-3 cells (%) at 0.1 pM TCB, Experiment 2” value (human BCMA on cells [8])?
The value was 36.5%.

What about the “Lysis of JJN-3 cells (%) at 1 pM TCB, Experiment 1” value (human BCMA on cells [8]) of the same binder?
The value was -4.29%.

And the “Lysis of JJN-3 cells (%) at 1 pM TCB, Experiment 2” value (human BCMA on cells [8])?
Its value is 24.4%.

What about the “Lysis of JJN-3 cells (%) at 10 pM TCB, Experiment 1” value (human BCMA on cells [8]) of the same binder?
The value was 73.6%.

And the “Lysis of JJN-3 cells (%) at 10 pM TCB, Experiment 2” value (human BCMA on cells [8])?
The value was 41.7%.

What about the “Lysis of JJN-3 cells (%) at 100 pM TCB, Experiment 1” value (human BCMA on cells [8]) of the same binder?
The value was 56.3%.

And the “Lysis of JJN-3 cells (%) at 100 pM TCB, Experiment 2” value (human BCMA on cells [8])?
Its value is 53%.

What about the “Lysis of JJN-3 cells (%) at 1000 pM TCB, Experiment 1” value (human BCMA on cells [8]) of the same binder?
The value was 90.5%.

What about the “Lysis of JJN-3 cells (%) at 1000 pM TCB, Experiment 2” value (human BCMA on cells [8]) of the same binder?
The value was 94.1%.

And the “Lysis of JJN-3 cells (%) at 10000 pM TCB, Experiment 1” value (human BCMA on cells [8])?
Its value is 88%.

And the “Lysis of JJN-3 cells (%) at 10000 pM TCB, Experiment 2” value (human BCMA on cells [8])?
Its value is 91.2%.

What about the “EC50 of redirected T-cell killing of H929 cells (LDH release), Donor 1” value (human BCMA on cells [5]) of the same binder?
Its value is 0.0532 nM.

What about the “EC50 of redirected T-cell killing of H929 cells (LDH release), Donor 3” value (human BCMA on cells [5]) of the same binder?
The value was 0.0422 nM.

And the “EC50 of redirected T-cell killing of H929 cells (LDH release), Donor 4” value (human BCMA on cells [5])?
The value was 0.0232 nM.

What about the “EC50 of redirected T-cell killing of H929 cells (LDH release), Donor 5” value (human BCMA on cells [5]) of the same binder?
The value was 0.0289 nM.
